# Assay results taken from PMC11927390.
# Tests used:
# human NKG2D Fc (human) = human NKG2D Fc (human) (UniProt P26718); test: SPR; Biacore 8K or 8K+, 37°C; NKG2D Fc captured (Protein A chip as told for human NKG2D-Fc), ULBP6 as analyte in HBS-P (0.01 mol/L HEPES pH 7.4, 0.15 mol/L NaCl, 0.005% P20); kinetic or steady-state fit not given
# murine NKG2D Fc (murine) = murine NKG2D Fc (murine) (UniProt O54709); test: as above
# [1] = target: human FcγRIIa-R167, biotinylated (human) (UniProt P12318); test: SPR; Biacore, 37°C; biotinylated FcγRs captured on Series S Sensor Chip CAP; threefold serial dilutions of the anti-ULBP6/2/5 antibodies injected at 30 μL/minute; HBS-P
# [2] = target: human FcγRI, biotinylated (human) (UniProt P12314); test: as above
# [3] = target: human FcγRIIIa-F176, biotinylated (human) (UniProt P08637); test: as above
# [4] = target: human FcγRIIa-H167, biotinylated (human) (UniProt P12318); test: as above
# [5] = target: human FcγRIIIa-V176, biotinylated (human) (UniProt P08637); test: as above
# [6] = target: human FcγRIIb, biotinylated (human) (UniProt P31994); test: as above
# [7] = target: FcγRIIIa on the effector cells of the Promega ADCC Reporter Bioassay (human) (UniProt P08637)
# [8] = target: recombinant soluble ULBP6-02 (human) (UniProt Q5VY80)
# [9] = target: recombinant soluble ULBP6-02 (human) (UniProt Q5VY80); remark: listed apart in the source
# Chain of murine NKG2D Fc (murine) (O54709 90-232): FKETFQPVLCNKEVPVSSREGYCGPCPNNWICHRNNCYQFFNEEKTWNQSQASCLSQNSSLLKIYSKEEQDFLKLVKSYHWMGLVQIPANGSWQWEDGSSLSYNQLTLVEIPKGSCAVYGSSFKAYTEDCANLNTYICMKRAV
# Chain of human FcγRIIa-R167, biotinylated (human) (P12318 34-317 H167R): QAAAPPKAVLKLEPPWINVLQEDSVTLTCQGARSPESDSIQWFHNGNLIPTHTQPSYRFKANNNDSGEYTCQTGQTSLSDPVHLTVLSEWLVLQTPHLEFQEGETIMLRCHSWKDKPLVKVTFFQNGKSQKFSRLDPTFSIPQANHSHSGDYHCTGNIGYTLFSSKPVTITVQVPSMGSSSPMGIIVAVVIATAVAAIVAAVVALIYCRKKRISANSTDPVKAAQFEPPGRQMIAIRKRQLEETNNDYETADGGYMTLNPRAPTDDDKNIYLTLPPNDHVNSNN
# Chain of human FcγRIIIa-V176, biotinylated (human) (P08637 17-254 F176V): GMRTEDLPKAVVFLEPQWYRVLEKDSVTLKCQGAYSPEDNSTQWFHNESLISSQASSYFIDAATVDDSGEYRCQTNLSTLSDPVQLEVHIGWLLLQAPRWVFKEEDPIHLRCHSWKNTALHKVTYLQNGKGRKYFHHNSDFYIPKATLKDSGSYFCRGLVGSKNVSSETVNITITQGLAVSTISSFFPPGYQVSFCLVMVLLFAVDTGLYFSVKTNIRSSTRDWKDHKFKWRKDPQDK
# Chain of human FcγRIIa-H167, biotinylated (human) (P12318 34-317): as the sequence (P12318 34-317 H167R) above, with R134H counted along it
# Chain of FcγRIIIa on the effector cells of the Promega ADCC Reporter Bioassay (human) (P08637 17-254): as the sequence (P08637 17-254 F176V) above, with V160F counted along it
# Chain of human FcγRIIIa-F176, biotinylated (human) (P08637 17-254): as the sequence (P08637 17-254 F176V) above, with V160F counted along it
# Chain of human FcγRIIb, biotinylated (human) (P31994 43-310): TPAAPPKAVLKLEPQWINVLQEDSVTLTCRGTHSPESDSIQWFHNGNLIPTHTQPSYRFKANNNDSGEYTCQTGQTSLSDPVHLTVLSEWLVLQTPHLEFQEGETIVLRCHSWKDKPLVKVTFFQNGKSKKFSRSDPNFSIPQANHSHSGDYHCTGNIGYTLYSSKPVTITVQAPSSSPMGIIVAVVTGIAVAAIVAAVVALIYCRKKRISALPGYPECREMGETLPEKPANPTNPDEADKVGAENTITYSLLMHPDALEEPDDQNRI
# Chain of human NKG2D Fc (human) (P26718 73-216): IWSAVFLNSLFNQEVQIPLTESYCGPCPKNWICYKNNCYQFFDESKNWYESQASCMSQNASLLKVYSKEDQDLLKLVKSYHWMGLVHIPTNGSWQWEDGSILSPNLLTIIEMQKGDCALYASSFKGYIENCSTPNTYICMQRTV
# Chain of human FcγRI, biotinylated (human) (P12314 16-374): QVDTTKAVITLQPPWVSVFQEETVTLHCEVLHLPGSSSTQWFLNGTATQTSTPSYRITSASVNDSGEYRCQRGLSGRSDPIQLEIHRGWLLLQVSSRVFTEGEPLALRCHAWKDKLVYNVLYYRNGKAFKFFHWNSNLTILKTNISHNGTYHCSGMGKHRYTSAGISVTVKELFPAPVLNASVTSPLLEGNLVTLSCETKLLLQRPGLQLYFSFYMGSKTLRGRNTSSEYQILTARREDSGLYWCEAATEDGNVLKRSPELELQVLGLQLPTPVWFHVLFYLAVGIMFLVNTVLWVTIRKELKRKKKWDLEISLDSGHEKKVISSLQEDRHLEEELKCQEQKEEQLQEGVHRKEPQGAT
substance,measurement,setting,value
human ULBP6 (analyte of Supplementary Table S6) (from UniProt Q5VY80 26-218) (ligand),Kd,human NKG2D Fc (human),0.8 nM
same,Kd,murine NKG2D Fc (murine),0.64 nM
"23ME-01473, humanized Fc effector-enhanced (afucosylated) anti-ULBP6/2/5 antibody",Kd,[1],406 nM
same,Kd,[2],0.92 nM
same,Kd,[3],25.5 nM
same,Kd,[4],270 nM
same,Kd,[5],6.74 nM
same,Kd,[6],2230 nM
same,"EC50 of FcγRIIIa activation (RLU), Promega ADCC reporter assay with luciferase effector cells and COV644 target cells, 0.0001 to 10 nmol/L antibody",[7],53.2 pM
same,"IC50 (so in the source) of IFNγ secretion by IL-2/IL-15-primed PBMCs cocultured with COV644 cells and 50 nmol/L sULBP6-02, 0.05-200 nmol/L 23ME-01473, donor d1213; pair blocked: sULBP6-02 and NKG2D",[8],21.5 nM
same,"IC50 (so in the source) of IFNγ secretion by IL-2/IL-15-primed PBMCs cocultured with COV644 cells and 50 nmol/L sULBP6-02, 0.05-200 nmol/L 23ME-01473, donor d1802; pair blocked: sULBP6-02 and NKG2D",[8],25.5 nM
same,"IC50 (so in the source) of IFNγ secretion by IL-2/IL-15-primed PBMCs cocultured with COV644 cells and 50 nmol/L sULBP6-02, 0.05-200 nmol/L 23ME-01473, donor d3761; pair blocked: sULBP6-02 and NKG2D",[8],13.6 nM
same,"IC50 (so in the source) of IFNγ secretion by IL-2/IL-15-primed PBMCs cocultured with COV644 cells and 50 nmol/L sULBP6-02, 0.05-200 nmol/L 23ME-01473, donor d33936; pair blocked: sULBP6-02 and NKG2D",[8],25.6 nM
"Fc-Att-anti-ULBP6/2/5, effector-attenuated (N297G) version of 23ME-01473 (antibody)","IC50 (so in the source) of the rescue of IFNγ production by PBMCs cocultured with COV644 cells in the presence of sULBP6, donor d1212; pair blocked: sULBP6-02 and NKG2D",[9],26 nM
same,"IC50 (so in the source) of the rescue of IFNγ production by PBMCs cocultured with COV644 cells in the presence of sULBP6, donor d1939; pair blocked: sULBP6-02 and NKG2D",[9],10.6 nM
same,"IC50 (so in the source) of the rescue of IFNγ production by PBMCs cocultured with COV644 cells in the presence of sULBP6, donor d33936; pair blocked: sULBP6-02 and NKG2D",[9],16.5 nM
